Tests used:
CD25 [1] = target: T1, CD25 (human, UniProt P01589 22-272); assay: flow cytometry on SU-DHL-1 cells (surface CD25), average of four experiments
T1 construct: whole, on cells; Endogenous CD25 on cell lines; also called surface CD25 on Karpas299 and SU-DHL-1 cells
T1 sequence (looked up): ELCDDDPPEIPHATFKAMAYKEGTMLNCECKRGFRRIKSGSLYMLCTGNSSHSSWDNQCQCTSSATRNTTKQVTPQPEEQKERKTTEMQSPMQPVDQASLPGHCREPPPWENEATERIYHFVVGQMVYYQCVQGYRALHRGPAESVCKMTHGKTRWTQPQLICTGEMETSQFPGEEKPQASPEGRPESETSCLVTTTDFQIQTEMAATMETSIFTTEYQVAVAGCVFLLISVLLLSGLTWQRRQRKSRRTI
Experimental: (§1) Karpas299 and SU-DHL-1 anaplastic large cell lymphoma (ALCL)-derived cell lines have been previously reported to express CD25 (2,3). To confirm their expression profile, CD25 surface expression was analyzed by flow cytometry.
(§2) Surface CD25 expression on Karpas and SU-DHL-1 was determined by flow cytometry. Graphs represent the average of three (Karpas299) or four independent experiments (SU-DHL-1). EC₅₀ values are reported in ng/ml.

CD25 [2] = target: T1, CD25; assay: flow cytometry on Karpas299 cells (surface CD25), average of three experiments
Experimental: as §1, §2

EC50 (CD25 [1]): 0.0341 µg/mL
EC50 (CD25 [2]): 0.0202 µg/mL
B1: HuMax-TAC (antibody, IgG1, V domains shown)
VH: QVQLVQSGAEVKKPGSSVKVSCKASGGTFSRYIINWVRQAPGQGLEWMGRIIPILGVENYAQKFQGRVTITADKSTSTAYMELSSLRSEDTAVYYCARKDWFDYWGQGTLVTVSS
VL: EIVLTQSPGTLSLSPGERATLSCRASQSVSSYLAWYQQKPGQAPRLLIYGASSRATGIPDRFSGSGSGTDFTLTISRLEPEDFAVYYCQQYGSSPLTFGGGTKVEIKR
notes: also called AB12; Antibody AB12

— US20150283263A1 (ADC THERAPEUTICS S A, published 2015)
